Results on nine substances are retold here after patent publication US20240132578A1.

Holding throughout (test): cell-based or functional assay
In experiment [1] the target is HIV-1 93IN905 envelope (Env) on pseudovirus (HIV-1).
For experiment [2], the target named is HIV-1 Env of isolate SF162 (HIV-1) (UniProt P19550).
The target of experiment [3] is HIV-1 Env of isolate MGRM-Chronic-B-003, clade B (HIV-1).
The target of experiment [4] is HIV-1 Env of isolate 92TH021 (CRF01_AE) (HIV-1).
Experiment [5] concerns the target HIV-1 Env of isolate MGRM-D-004 (clade D pseudovirus) (HIV-1).
Experiment [6] deals with HIV-1 92TH021 envelope (Env) on pseudovirus (HIV-1).
The target in experiment [7] is HIV-1 Env of pseudovirus MGRM-F1-021 (HIV-1).
In experiment [8] the target is HIV-1 Env of isolate 93WR029 (pseudovirus) (HIV-1).
In experiment [9] the target is HIV-1 Env of isolate CMU02 (pseudovirus) (HIV-1).
Experiment [10] concerns the target HIV-1 Env of isolate PVO.4 (HIV-1).
Experiment [11] has as its target HIV-1 Env of isolate MGRM-Chronic-B-010 (HIV-1).
Experiment [12] concerns the target HIV-1 Env of isolate QH0692.42 (HIV-1).
Experiment [13] deals with HIV-1 Env of isolate MGRM-Chronic-B-012 (HIV-1).
Experiment [14] has as its target HIV-1 Env of isolate MGRM-AE-004 (pseudovirus) (HIV-1).
For experiment [15], the target named is HIV-1 Env of isolate 98IN022 (HIV-1).
Experiment [16] has as its target HIV-1 Env of isolate MGRM-Chronic-B-018 (HIV-1).
The target in experiment [17] is HIV-1 Env of isolate MGRM-Chronic-B-020 (HIV-1).
The target in experiment [18] is HIV-1 Env of isolate MGRM-AE-005 (pseudovirus) (HIV-1).
The target in experiment [19] is HIV-1 Env of isolate 92WR024 (pseudovirus) (HIV-1).
Experiment [20] addresses HIV-1 Env of isolate MGRM-Chronic-B-011 (HIV-1).
For experiment [21], the target named is HIV-1 Env of isolate 92UG031 (pseudovirus) (HIV-1).
Experiment [22] deals with HIV-1 Env of isolate 93IN905 (HIV-1).
In experiment [23] the target is HIV-1 Env of isolate MGRM-Chronic-B-024 (HIV-1).
Experiment [24] has as its target HIV-1 Env of isolate 93UG077 (pseudovirus) (HIV-1).
In experiment [25] the target is HIV-1 Env of isolate VLGCB3 (HIV-1).
The target in experiment [26] is HIV-1 Env of isolate TRJ04551.58 (HIV-1).
Experiment [27] deals with HIV-1 Env of isolate 94UG103 (pseudovirus) (HIV-1).
Experiment [28] addresses HIV-1 Env of isolate MGRM-AE-006 (pseudovirus) (HIV-1).
In experiment [29] the target is HIV-1 Env of isolate 93MW959 (HIV-1).
Experiment [30] has as its target HIV-1 Env of isolate 92WR020 (pseudovirus) (HIV-1).
Experiment [31] has as its target HIV-1 Env of isolate THR0.18 (HIV-1).
Experiment [32] concerns the target HIV-1 Env of isolate MGRM-Chronic-B-017 (HIV-1).
The target of experiment [33] is HIV-1 envelope glycoprotein (Env) of isolate MG RM-AG-009 (HIV-1).
Experiment [34] addresses HIV-1 Env of isolate TRO.11 (HIV-1).
Experiment [35] deals with HIV-1 Env of isolate NL43 (HIV-1).
Experiment [36] deals with HIV-1 Env of isolate JRCSF (HIV-1) (UniProt P20871).
The target of experiment [37] is HIV-1 Env of isolate 97ZA012 (HIV-1).
The target in experiment [38] is HIV-1 Env of isolate MGRM-Chronic-B-023 (HIV-1).
Experiment [39] has as its target HIV-1 Env of isolate SC422661.8 (HIV-1).
Experiment [40] addresses HIV-1 Env of isolate 92UG037 (pseudovirus) (HIV-1).
Experiment [41] addresses HIV-1 Env of isolate 92WR021 (pseudovirus) (HIV-1).

One may read the IC50 as the concentration needed to halve the response being measured.

PGT-144 (4970_K22) (antibody), sequence (VH): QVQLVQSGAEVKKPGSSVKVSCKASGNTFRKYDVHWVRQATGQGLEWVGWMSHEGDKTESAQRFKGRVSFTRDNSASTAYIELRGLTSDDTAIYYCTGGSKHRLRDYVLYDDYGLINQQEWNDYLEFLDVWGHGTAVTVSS
PGT-144 (4970_K22) (antibody), sequence (VL): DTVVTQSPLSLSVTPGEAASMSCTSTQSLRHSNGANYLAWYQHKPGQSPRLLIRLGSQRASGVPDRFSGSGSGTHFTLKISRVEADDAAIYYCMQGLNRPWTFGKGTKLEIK
PGT-145 (4995_P16) (antibody), sequence (VH): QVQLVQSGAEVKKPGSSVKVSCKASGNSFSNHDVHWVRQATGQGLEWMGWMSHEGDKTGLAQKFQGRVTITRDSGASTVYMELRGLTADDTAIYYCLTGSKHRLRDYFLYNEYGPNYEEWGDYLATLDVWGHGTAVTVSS
PGT-145 (4995_P16) (antibody), sequence (VL): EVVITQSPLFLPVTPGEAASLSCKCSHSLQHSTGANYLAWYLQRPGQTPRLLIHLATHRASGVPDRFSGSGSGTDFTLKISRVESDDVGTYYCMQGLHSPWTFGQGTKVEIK
PGT-141 (4964_G22; 4993_K13) (antibody), sequence (VH): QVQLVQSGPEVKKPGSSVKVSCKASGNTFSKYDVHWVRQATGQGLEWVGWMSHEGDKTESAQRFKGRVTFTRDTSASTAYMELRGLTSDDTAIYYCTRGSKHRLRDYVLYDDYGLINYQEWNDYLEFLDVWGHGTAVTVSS
PGT-141 (4964_G22; 4993_K13) (antibody), sequence (VL): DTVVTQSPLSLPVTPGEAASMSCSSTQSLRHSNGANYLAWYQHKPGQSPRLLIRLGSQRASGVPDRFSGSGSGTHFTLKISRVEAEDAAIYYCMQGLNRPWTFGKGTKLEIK
1443_C16 (PG16) (TCN-116) (antibody), sequence (VH): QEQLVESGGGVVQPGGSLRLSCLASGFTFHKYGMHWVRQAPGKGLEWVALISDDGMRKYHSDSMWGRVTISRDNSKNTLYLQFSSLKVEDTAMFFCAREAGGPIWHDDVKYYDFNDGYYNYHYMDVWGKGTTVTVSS
1443_C16 (PG16) (TCN-116) (antibody), sequence (VL): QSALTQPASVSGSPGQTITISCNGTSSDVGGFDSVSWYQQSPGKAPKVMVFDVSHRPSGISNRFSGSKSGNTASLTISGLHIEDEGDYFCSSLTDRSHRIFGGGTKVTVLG

In the case of 2G12 (antibody), the neutralization IC50 in experiment [1] and in experiment [6] was over 50 µg/mL in each case. Also, the figures for the IC50 (µg/ml), pseudovirus neutralization in experiment [2] and in [3] were 1.67 µg/mL and 0.06 µg/mL, respectively. In experiment [4], this substance registered an IC90 (neutralization of pseudovirus) of over 50 µg/mL. The same substance yielded an IC50, pseudovirus neutralization in [5] of over 50 µg/mL.

For b12 (antibody), the neutralization IC50 in experiment [1] is 34.1 µg/mL; in [6] it was 9.99 µg/mL. Also, the results for the IC50 (µg/ml), pseudovirus neutralization in [2] and in [3] were 0.02 µg/mL and over 50 µg/mL, respectively. This substance also gave an IC90 (neutralization of pseudovirus) in experiment [4] of over 50 µg/mL. Moreover, the IC50, pseudovirus neutralization in experiment [5] was over 50 µg/mL.

Turning to 1495_C14 (PGC14) (antibody), the neutralization IC50 in experiment [1] and in [6] was over 50 µg/mL each time. Also, the IC50 (µg/ml), pseudovirus neutralization in [2] was under 0.0025 µg/mL; in experiment [3] it was over 50 µg/mL. This substance also yielded an IC50, pseudovirus neutralization in experiment [5] of over 50 µg/mL.

As for VRC01 (antibody), the IC50, pseudovirus neutralization in experiment [7] was 0.039 µg/mL; in [10], 0.218 µg/mL; in experiment [11], 0.156 µg/mL; in experiment [12], 1.19 µg/mL; in experiment [13], 1.03 µg/mL; in experiment [15], 0.342 µg/mL. For the same substance, the IC50, pseudovirus neutralization in experiment [16] worked out at 0.328 µg/mL; in experiment [17], 0.424 µg/mL; in [2] it was 0.421 µg/mL; in experiment [20] it was 0.587 µg/mL; in experiment [22], 0.138 µg/mL; in experiment [23] it was 0.377 µg/mL. Also, the IC50, pseudovirus neutralization in experiment [25] amounted to 0.108 µg/mL; in [26] it was 0.06 µg/mL; in experiment [29], 0.053 µg/mL; in [31], 2.46 µg/mL; in experiment [32], 0.141 µg/mL; in experiment [34], 0.186 µg/mL. Further, the IC50, pseudovirus neutralization in [35] turned out to be 0.1 µg/mL; in experiment [36], 0.164 µg/mL; in experiment [37] it was 0.088 µg/mL; in experiment [38] it was 0.275 µg/mL; in experiment [39], 0.179 µg/mL. In addition, the IC50 (µg/mL), single-round pseudovirus neutralization in experiment [8] is 1.57 µg/mL; in [9] it was 0.515 µg/mL; in [14], 0.187 µg/mL; in experiment [18], 0.029 µg/mL; in experiment [19], 0.327 µg/mL; in [21], 0.469 µg/mL. Moreover, the IC50 (µg/mL), single-round pseudovirus neutralization in experiment [24] worked out at 0.097 µg/mL; in experiment [27], 0.285 µg/mL; in [28] it was 4.65 µg/mL; in experiment [30] it was 0.13 µg/mL; in experiment [40] it was 0.245 µg/mL; in experiment [41] it was 0.066 µg/mL. In experiment [33], this substance showed an IC50 of over 50 µg/mL.

Take 4E10 (antibody): the neutralization IC50 came out at 1.55 µg/mL in [1] and 1.9 µg/mL in [6]. The IC50 (µg/ml), pseudovirus neutralization worked out at 4.28 µg/mL in experiment [2] and 3.5 µg/mL in [3]. In experiment [4], this substance displayed an IC90 (neutralization of pseudovirus) of 23.5 µg/mL. The IC50, pseudovirus neutralization in experiment [5] was 1.58 µg/mL.

1443_C16 (PG16) (TCN-116) (antibody): the neutralization IC50 in experiment [1] came out at 0.102 µg/mL; in experiment [6], 0.127 µg/mL. Besides, the IC50 (µg/ml), pseudovirus neutralization in [2] was over 50 µg/mL; in experiment [3] it was 0.19 µg/mL. Moreover, the IC90 (neutralization of pseudovirus) in experiment [4] came out at 23.4 µg/mL. In experiment [5], this substance showed an IC50, pseudovirus neutralization of 0.01 µg/mL.

With PGT-145 (4995_P16) (antibody), the IC50, pseudovirus neutralization in [7] was 8.04 µg/mL; in experiment [10], 0.299 µg/mL; in experiment [11], over 50 µg/mL; in [12] it was over 50 µg/mL; in [13] it was 9.66 µg/mL; in experiment [15] it was 0.005 µg/mL. The IC50, pseudovirus neutralization in experiment [16] was 0.013 µg/mL; in [17], over 50 µg/mL; in [2] it was over 50 µg/mL; in [20] it was 0.206 µg/mL; in [22], 0.002 µg/mL; in experiment [23] it was 0.018 µg/mL. The IC50, pseudovirus neutralization in experiment [25] was over 50 µg/mL; in experiment [26], over 50 µg/mL; in experiment [29], 1.2 µg/mL; in [31] it was 0.013 µg/mL; in [32], 0.054 µg/mL; in experiment [34], 0.044 µg/mL. The IC50, pseudovirus neutralization in experiment [35] is 0.006 µg/mL; in [36], 0.002 µg/mL; in experiment [37], 0.915 µg/mL; in [38] it was 0.009 µg/mL; in experiment [39] it was 0.079 µg/mL. In addition, the IC50 in experiment [33] was over 50 µg/mL.

Regarding PGT-141 (4964_G22; 4993_K13) (antibody), the IC50, pseudovirus neutralization in [7] is over 50 µg/mL; in [10], 0.113 µg/mL; in [11], over 50 µg/mL; in experiment [12] it was over 50 µg/mL; in experiment [13], over 50 µg/mL; in experiment [15], 0.001 µg/mL. For the same substance, the IC50, pseudovirus neutralization was 0.572 µg/mL in experiment [16]; over 50 µg/mL in experiment [17]; over 50 µg/mL in experiment [2]; 2.24 µg/mL in experiment [20]; 0.001 µg/mL in experiment [22]; 0.011 µg/mL in [23]. Besides, the IC50, pseudovirus neutralization in experiment [25] is over 50 µg/mL; in experiment [26] it was over 50 µg/mL; in [29], 0.003 µg/mL; in [31], 0.007 µg/mL; in experiment [32], 0.147 µg/mL; in [34], 0.383 µg/mL. The IC50, pseudovirus neutralization in experiment [35] is over 50 µg/mL; in [36], 0.009 µg/mL; in experiment [37] it was over 50 µg/mL; in experiment [38], 0.318 µg/mL; in [39] it was 1.66 µg/mL. In addition, the IC50 in experiment [33] was over 50 µg/mL.

On to PGT-144 (4970_K22) (antibody), for which the IC50, pseudovirus neutralization in experiment [7] is over 50 µg/mL; in experiment [10], 0.535 µg/mL; in experiment [11] it was over 50 µg/mL; in [12], over 50 µg/mL; in [13] it was over 50 µg/mL; in experiment [15] it was 0.171 µg/mL. The IC50, pseudovirus neutralization in [16] is 2.4 µg/mL; in [17], over 50 µg/mL; in [2], over 50 µg/mL; in [20], 5.64 µg/mL; in [22], 0.132 µg/mL; in experiment [23] it was 0.04 µg/mL. Moreover, the IC50, pseudovirus neutralization in experiment [25] is over 50 µg/mL; in [26], over 50 µg/mL; in experiment [29], 0.332 µg/mL; in [31], 0.029 µg/mL; in [32] it was 0.712 µg/mL; in experiment [34] it was 4.73 µg/mL. The IC50, pseudovirus neutralization in [35] was over 50 µg/mL; in experiment [36], 0.149 µg/mL; in experiment [37], over 50 µg/mL; in [38], over 50 µg/mL; in [39] it was over 50 µg/mL. In addition, the IC50 in experiment [33] was over 50 µg/mL.
